Changes are numbered by the printed parent chain.
T1: endothelial nitric oxide synthase (eNOS), endogenous, mouse cardiac microvascular endothelial cells (CMECs) (mouse, UniProt P70313 2-1202)
T1 construct: Endogenous protein in a cell lysate, detected by co-immunoprecipitation and immunoblot; also called endothelial NO synthase
T1 sequence (looked up): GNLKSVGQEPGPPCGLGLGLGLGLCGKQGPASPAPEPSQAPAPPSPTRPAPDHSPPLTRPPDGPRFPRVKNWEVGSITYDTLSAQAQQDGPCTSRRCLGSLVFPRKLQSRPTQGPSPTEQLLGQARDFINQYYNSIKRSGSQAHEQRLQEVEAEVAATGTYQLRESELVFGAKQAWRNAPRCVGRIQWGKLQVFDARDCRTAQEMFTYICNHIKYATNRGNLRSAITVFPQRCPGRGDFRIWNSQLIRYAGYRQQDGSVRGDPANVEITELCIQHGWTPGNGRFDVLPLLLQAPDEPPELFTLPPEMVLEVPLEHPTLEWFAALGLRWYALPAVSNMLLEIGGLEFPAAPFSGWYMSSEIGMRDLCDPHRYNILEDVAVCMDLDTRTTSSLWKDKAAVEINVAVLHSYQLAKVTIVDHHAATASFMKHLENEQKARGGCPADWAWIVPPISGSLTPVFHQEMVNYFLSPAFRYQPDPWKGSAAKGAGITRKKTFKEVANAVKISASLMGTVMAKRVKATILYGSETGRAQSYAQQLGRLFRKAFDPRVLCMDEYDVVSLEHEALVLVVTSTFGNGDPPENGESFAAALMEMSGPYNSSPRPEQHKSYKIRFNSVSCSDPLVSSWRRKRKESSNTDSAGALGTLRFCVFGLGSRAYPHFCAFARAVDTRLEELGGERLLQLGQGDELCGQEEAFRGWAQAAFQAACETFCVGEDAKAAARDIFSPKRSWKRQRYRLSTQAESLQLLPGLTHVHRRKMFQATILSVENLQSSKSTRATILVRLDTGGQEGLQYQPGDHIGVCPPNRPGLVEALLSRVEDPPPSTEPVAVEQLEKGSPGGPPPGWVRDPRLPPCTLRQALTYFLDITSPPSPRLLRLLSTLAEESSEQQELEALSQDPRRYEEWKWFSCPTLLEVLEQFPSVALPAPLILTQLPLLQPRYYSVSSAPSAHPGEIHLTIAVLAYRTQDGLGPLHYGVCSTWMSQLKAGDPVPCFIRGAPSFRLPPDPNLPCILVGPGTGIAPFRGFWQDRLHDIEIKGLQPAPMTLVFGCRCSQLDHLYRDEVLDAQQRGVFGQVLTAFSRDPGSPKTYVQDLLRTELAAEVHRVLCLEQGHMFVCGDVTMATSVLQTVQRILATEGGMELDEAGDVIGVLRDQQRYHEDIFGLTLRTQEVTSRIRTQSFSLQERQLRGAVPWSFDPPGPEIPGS

B1: caveolin, endogenous, mouse cardiac microvascular endothelial cells (CMECs) (other, UniProt P49817 2-178, looked up)
chain: SGGKYVDSEGHLYTVPIREQGNIYKPNNKAMADEVTEKQVYDAHTKEIDLVNRDPKHLNDDVVKIDFEDVIAEPEGTHSFDGIWKASFTTFTVTKYWFYRLLSTIFGIPMALIWGIYFAILSFLHIWAVVPCIKSFLIEIQCISRVYSIYVHTFCDPLFEAIGKIFSNIRISTQKEI
notes: also called caveolin-1
B2: caveolin, endogenous, human umbilical vein endothelial cells (HUVECs) (other, UniProt Q03135 2-178, looked up)
chain: B1 chain with V35L, T36S, T104A, I105L, F154V, I162V, I169V, S172N, T173L
notes: also called caveolin-1
B3: endothelial nitric oxide synthase (eNOS), endogenous, human umbilical vein endothelial cells (HUVECs) (enzyme)
chain: GNLKSVAQEPGPPCGLGLGLGLGLCGKQGPATPAPEPSRAPASLLPPAPEHSPPSSPLTQPPEGPKFPRVKNWEVGSITYDTLSAQAQQDGPCTPRRCLGSLVFPRKLQGRPSPGPPAPEQLLSQARDFINQYYSSIKRSGSQAHEQRLQEVEAEVAATGTYQLRESELVFGAKQAWRNAPRCVGRIQWGKLQVFDARDCRSAQEMFTYICNHIKYATNRGNLRSAITVFPQRCPGRGDFRIWNSQLVRYAGYRQQDGSVRGDPANVEITELCIQHGWTPGNGRFDVLPLLLQAPDDPPELFLLPPELVLEVPLEHPTLEWFAALGLRWYALPAVSNMLLEIGGLEFPAAPFSGWYMSTEIGTRNLCDPHRYNILEDVAVCMDLDTRTTSSLWKDKAAVEINVAVLHSYQLAKVTIVDHHAATASFMKHLENEQKARGGCPADWAWIVPPISGSLTPVFHQEMVNYFLSPAFRYQPDPWKGSAAKGTGITRKKTFKEVANAVKISASLMGTVMAKRVKATILYGSETGRAQSYAQQLGRLFRKAFDPRVLCMDEYDVVSLEHETLVLVVTSTFGNGDPPENGESFAAALMEMSGPYNSSPRPEQHKSYKIRFNSISCSDPLVSSWRRKRKESSNTDSAGALGTLRFCVFGLGSRAYPHFCAFARAVDTRLEELGGERLLQLGQGDELCGQEEAFRGWAQAAFQAACETFCVGEDAKAAARDIFSPKRSWKRQRYRLSAQAEGLQLLPGLIHVHRRKMFQATIRSVENLQSSKSTRATILVRLDTGGQEGLQYQPGDHIGVCPPNRPGLVEALLSRVEDPPAPTEPVAVEQLEKGSPGGPPPGWVRDPRLPPCTLRQALTFFLDITSPPSPQLLRLLSTLAEEPREQQELEALSQDPRRYEEWKWFRCPTLLEVLEQFPSVALPAPLLLTQLPLLQPRYYSVSSAPSTHPGEIHLTVAVLAYRTQDGLGPLHYGVCSTWLSQLKPGDPVPCFIRGAPSFRLPPDPSLPCILVGPGTGIAPFRGFWQERLHDIESKGLQPTPMTLVFGCRCSQLDHLYRDEVQNAQQRGVFGRVLTAFSREPDNPKTYVQDILRTELAAEVHRVLCLERGHMFVCGDVTMATNVLQTVQRILATEGDMELDEAGDVIGVLRDQQRYHEDIFGLTLRTQEVTSRIRTQSFSLQERQLRGAVPWAFDPPGSDTNSP

Assays:
[1] = target: T1, endothelial nitric oxide synthase …; experiment: co-IP with eNOS or caveolin antibodies, immunoblot, CMEC lysates
[2] = target: B3; experiment: caveolin IP, eNOS immunoblot, HUVEC lysates
Method: Following exposure to VEGF (50 ng/ml) for increasing periods of time (0, 0.5, 2, 5, and 30 min), EC were collected, lysed, and cell extracts used for immunoprecipitation as follows.

[3] = target: calmodulin (CaM), endogenous, human umbilical vein endothelial cells (HUVECs) (human, UniProt P0DP23 2-149); experiment: eNOS IP, CaM immunoblot, VEGF-treated HUVEC lysates

Binder: B1
binding result [1]: binds

Binder: B2
binding result [2]: binds

Binder: B3
binding result [3]: binds
